This series in a line: yeast display, Sf9 membrane polyspecificity reagent, FACS + sequencing; frameworks hold sequencing errors. In outline:
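Genes from sorted yeast were amplified by colony PCR, read by MiSeq 2 × 250 sequencing and filtered on CDR length. These cells carried a synthetic nanobody library in Saccharomyces cerevisiae BJ5465 and were sorted by FACS into low and high (top ~1%) gates on anti-HA and streptavidin fluorescence. Polyreactivity is labelled according to the gate of origin.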
Consider “QVQLVESGGGLVQAGGSLRLSCAASGSTSYVYATGGYRQAPGKERELVAAISGSGGRTYYADSVKGRFTISRDNAKNTVYLQMNSLKPEDTAVYYCNALPRPSYPFDYWGQGTQVTVSS”, for which the “polyreactivity (PSR sort gate)” value is reported as “high polyreactivity”.

With “QVQLVESGGGLVQAGGSLRLSCAASGSTSYYYAMGWYRQAPGKERELVAAITTSGGSTYYADSVKGRFTISRDNAKNTVYLQMNSLKPEDTAVYYCATGYLYFTSYRYNYWGQGTQVTVSS”, the “polyreactivity (PSR sort gate)” value was “low polyreactivity”.

With “QVQLVESGGGLVQAGGSLRLSCAASGSTVYVYTMGGYRQAPGKERELVAANSLSGDNTYYADSVKGRFTISRDNAKNTVYLQKNSLKPEATAVYYCNADIIGFPADYLYDYWGQGTQVTVSS”, the “polyreactivity (PSR sort gate)” value is reported as “low polyreactivity”.

For the sequence “QVQLVESGGGLVQAGGSLRLSCAASGSTVYYNAMGWYRQAPGKERELVADISWRGGITYYADSVKGRFTISRDNAKNTVYLQMNSLKPAETAVYYCNADAESFDDGYWGQGTQVTVSS”, the “polyreactivity (PSR sort gate)” value is reported as “low polyreactivity”.

On to “QVQLVESGGGLVQAGGSLRLSCAASGSTWNRNPMGWYRQAPGKERELVAAISWRGDSTSYADSVKGRFTISRDNAKNTVYLQMNSLKPEDTAVYYCATAHDYAFYRYWYVPSEYNYWGQGTQVTVSS”, for which the “polyreactivity (PSR sort gate)” value is given as “low polyreactivity”.

As to “QVQLVESGGGLVQAGGSLRLSCAASGSTYAGNAIGWSRQAPRKERELVAAIDSSTGSTYYADSVKGRFTISRDNAKNTVYLQMNSLNPEDTAVYYCNKTSFLVKLDYWGQGTQVTVSS”, the “polyreactivity (PSR sort gate)” value is “low polyreactivity”.

In the case of “QVQLVESGGGLVQAGGSLRLSCAASGSTYAIYAMGSYRQAPGKERELVASISGGSTNYADSVKGRFTISRDNAKNTVYLQMNSLKPEDTAVYYCAARGALHHWYRYDYWGQGTQVTVSS”, the “polyreactivity (PSR sort gate)” value is on record as “low polyreactivity”.

As for “QVQLVESGGGLVQAGGSLRLSCAASGSTYGYTMGWYRQAPGKERELVADITSGGTTNYADSVKGRFTISRDNAKNTVYLQMNSLKPEDTAVYYCATRGAEWGWLGSIFNPFDYWGQGTQVTVSS”, the “polyreactivity (PSR sort gate)” value is “low polyreactivity”.

As for “QVQLVESGGGLVQAGGSLRLSCAASGSTYRIYAMGWYRQAPGKERELVAAITRSGGSTYYADSVKGRFTISRDNAKNTVYLQMNSMKPEDTAVYYCNRRGAYPAKYDYWGQGTQVTVSS”, the “polyreactivity (PSR sort gate)” value is “high polyreactivity”.

For “QVQLVESGGGLVQAGGSLRLSCAASGSTYRTYPMGWYRQAPGKERELVASISYRSGRTYYADSVKGRFTISRDNAKNTVYLPMNSLKPEDTAVYYCNSRMYGVISRMDYWGQGTQVTVSS”, the “polyreactivity (PSR sort gate)” value is “high polyreactivity”.

As to “QVQLVESGGGLVQAGGSLRLSCAASGSTYSYYAMGWYRQAPGKERELVAAITTSGGRTYYADSVKGRFTISRDNAKNTVYLQMNSLKPEDTAVYYCNARRHWYSAWGYDYWGQGTQVTVSS”, the “polyreactivity (PSR sort gate)” value is listed as “high polyreactivity”.

In the case of “QVQLVESGGGLVQAGGSLRLSCAASGSTYVSNAMGWYRQAPGKERELVAAISTGGGTCYADSVKGRFTISRDNAKNTVYLQMNSLKPEDTAVYYCNAVYVWWDGWGLYYWGQGTQVTVSS”, the “polyreactivity (PSR sort gate)” value is “low polyreactivity”.

In the case of “QVQLVESGGGLVQAGGSLRLSCAASGSTYYYAMGWYIQEPGKEREFVAAISASGGSTYYADSVKGRFTISRDNAKNTVYLQMNSLKPDDTAGYYCTPLGYGYWGQGTQVTVSS”, the “polyreactivity (PSR sort gate)” value is “high polyreactivity”.

For the sequence “QVQLVESGGGLVQAGGSLRLSCAASGSTYYYAMGWYREAPGKERELVAAISSSSGSTYYADSVKGRFTISRDNAKNTVYLQLNSLKPEDTAVYYCAAEGYKGWVYEYDYWGQGTQVTVSS”, the “polyreactivity (PSR sort gate)” value is “low polyreactivity”.

Consider “QVQLVESGGGLVQAGGSLRLSCAASGSTYYYYAMGSYRPAPGKERELVAAINTSGGITYYADSVKGRFTISRDNAKNTVYLQMNSLKPEDTAVYYCAARNRSYCGTFGSYNYDYWGQGTQVTVSS”, for which the “polyreactivity (PSR sort gate)” value was “high polyreactivity”.

On to “QVQLVESGGGLVQAGGSLRLSCAASGSTYYYYAMGWYRQAPGKERELVASIRSGGNTNYADSVKGRFTISRDNAKNTVYLQMKSLIPEDTAVYYCASRYMGSYSGGNYWGQVTQVTVSS”, for which the “polyreactivity (PSR sort gate)” value is “low polyreactivity”.

As to “QVQLVESGGGLVQAGGSLRLSCAASGSVFGKYAMGWYRQAPGKERELVAAISRSGGSTYYADSVKGRFTISRDNAKNTVYLQMNSLKPEDTAVYYCAADSPGPWRYDYWGQGTQVTVSS”, the “polyreactivity (PSR sort gate)” value was “high polyreactivity”.

“QVQLVESGGGLVQAGGSLRLSCAASGSYTMGWYRQAPGKERELVAAISKSCGSTYYADSVKGRFTISRDNAKNTVYLQMNSLKPDDTAVYYCAAVGWWGTYDYWGQGTQVTVSS”: the “polyreactivity (PSR sort gate)” value is recorded as “high polyreactivity”.

Regarding “QVQLVESGGGLVQAGGSLRLSCAASGTFAFYTMGWYRPAPGKERELVAAISWDGGDTYYADSVKGRFTISRDNAKNTVYLQMNSLKPEDTAVYYCAADYSNSGYGYWGQGTQVTVSS”, the “polyreactivity (PSR sort gate)” value is listed as “low polyreactivity”.

Regarding “QVQLVESGGGLVQAGGSLRLSCAASGTFDYYDMGWYRQAPGKERELVAGITSGGSTDYADSVKGRFTISRDNAKNTVYLQMNSLKPEDTAVYYCAADPFRIHTYDYWGQGTQVTVSS”, the “polyreactivity (PSR sort gate)” value is listed as “low polyreactivity”.

For the sequence “QVQLVESGGGLVQAGGSLRLSCAASGTFKWYAMGWYRQAPGKERELVAVISSSSSTNYADSVKGRFTISRDNAKNTVYLQMNSLKPKIPAVYYCNAKWTTLFDYWGQGTQVTVSS”, the “polyreactivity (PSR sort gate)” value is recorded as “high polyreactivity”.

In the case of “QVQLVESGGGLVQAGGSLRLSCAASGTFPGNAMGWYRQSPGKERELVATITRGGRTYYADSVKGRFTISRDNAKHTVYLQMNSLKPEDTAVYYCNTRVYFGKIRGYDYWGQGTQVTVSS”, the “polyreactivity (PSR sort gate)” value was “high polyreactivity”.

Turning to “QVQLVESGGGLVQAGGSLRLSCAASGTFQYNAMGWYRQAPGKERELLAAITSGGSTNYADSVKGRFTISRDNAKNTVYLQMNSLKPEDTAVYYCAAVRRYRASRGSLYYYWGQGTQVTVSS”, the “polyreactivity (PSR sort gate)” value was “high polyreactivity”.

Turning to “QVQLVESGGGLVQAGGSLRLSCAASGTFSFYALGWYRHAPGKERELVATIRSGGRTYYADSVKGRFTISRDTAKNTVYLQMNSLKPEDTAVYYCAKTGFLGLRQYGYWGQGTQVTVSS”, the “polyreactivity (PSR sort gate)” value is recorded as “high polyreactivity”.

On to “QVQLVESGGGLVQAGGSLRLSCAASGTFVTYMGWYRQAPGKERELVAAIRNGGSTNYADSVKGRFTISRDNAKNTVYLQMNSLKPEDTAVYYCAARVTYSRGYRGGSRTKYDYWGQGTQVTVSS”, for which the “polyreactivity (PSR sort gate)” value was “low polyreactivity”.

With “QVQLVESGGGLVQAGGSLRLSCAASGTFYKYAMGWYRQAPGKERELVAAISWRGGRTYADSVKGRFKISRDNAKNTVYLQMNSLKPEDTAVYYCNKRFYPEHYYWGQGTQVTVSS”, the “polyreactivity (PSR sort gate)” value is recorded as “high polyreactivity”.

As to “QVQLVESGGGLVQAGGSLRLSCAASGTIFSRNAMGWYRQAPGKERELVAAITGSGSSTYYADSVKGRFTISRDNAKNTVYLQMNSLKPEDTAVYYCNAARVYLSEWGQGTQVTVSS”, the “polyreactivity (PSR sort gate)” value is reported as “high polyreactivity”.

On to “QVQLVESGGGLVQAGGSLRLSCAASGTISVFYAKGWYRQAPGKEREFVAAISWRGGRTYYADSVKARFTISRDNAKNTVYLQMNSLKPEDTAVYYCAKDIVRGRSSRYDYWGQGTQVTVSS”, for which the “polyreactivity (PSR sort gate)” value was “high polyreactivity”.

Take “QVQLVESGGGLVQAGGSLRLSCAASGTNGMGWYRQAPGKERELVAAISGSGGSTYYADSVKGRFTISRDNAKNTVYLQMNSLKPEDTAVYYGAADSIQYTARPYDYWGQGTQVTVSS”: the “polyreactivity (PSR sort gate)” value is given as “low polyreactivity”.

Consider “QVQLVESGGGLVQAGGSLRLSCAASGTTFAGNAMGWYRQAPGKERELVAAITFSGGRTDYADSVKGCFTISRDNAKNTVYLQMNSLKPEDTAVYYCAAPADDTVHYQNYYWGQGTQVTVSS”, for which the “polyreactivity (PSR sort gate)” value is on record as “low polyreactivity”.

Regarding “QVQLVESGGGLVQAGGSLRLSCAASGTTFAVYTMGWYRQAPGKERELSTSYADSVKGRFTISRDNAKNTVYLQMNILKQEDTAVYYCNRDFYEFDSNSYRFDYWGQGTQVTVSS”, the “polyreactivity (PSR sort gate)” value was “low polyreactivity”.

Turning to “QVQLVESGGGLVQAGGSLRLSCAASGTTFRIYSMGWYRQAPGKERELVAGITRRGGSTFYADSVKGRFTISRDTAKNTVYFQMNSLKPEDTAVYYCAARFRGGMDYWGQGTQVTVSS”, the “polyreactivity (PSR sort gate)” value is listed as “high polyreactivity”.

Turning to “QVQLVESGGGLVQAGGSLRLSCAASGTTFSGNAMGWYRQAPGKERELVAAITRSGSRTYYADSVKGRFTISRDNAKNTVYLQMHSLKPEDTAVYYCAKVGRTGDDYYYWGQGTQVTVSS”, the “polyreactivity (PSR sort gate)” value was “high polyreactivity”.

With “QVQLVESGGGLVQAGGSLRLSCAASGTTFYYNAMGWYRQAPGKERELVARISRSGGSTYADSVKGRFTISRDNAKNTVYLQMNSLKPEDTAVYYCNADAYGTPEFTSYAVRYDYWGQGTQVTVSS”, the “polyreactivity (PSR sort gate)” value was “low polyreactivity”.

In the case of “QVQLVESGGGLVQAGGSLRLSCAASGTTIPRNAMGWYRQAPGKERELVAAITSGGSTNYADSVKGRFTISRDNAKNTVYLQMNSLKPEDTAVYYCAADEQVNTQYVVWGDYWGQGTQVTVSS”, the “polyreactivity (PSR sort gate)” value is reported as “low polyreactivity”.

For the sequence “QVQLVESGGGLVQAGGSLRLSCAASGTTLVRYAMGWYRQAPGKERELVASISYSGGSTHYADSVKGRFTISRDNAKNTVYLQMNSLKPEDTAVYYCAARPYYSWGGHYYWGQGTQVTVSS”, the “polyreactivity (PSR sort gate)” value is “high polyreactivity”.

Regarding “QVQLVESGGGLVQAGGSLRLSCAASGTTYYNAMGWYRQAPGKERELVAAIRFRSGSTYYADSVKGRFTISRDNAKNTVYLQMNSLKPEDTAVYYFAADNKRSWRYAYNYWGQGTQVTVSS”, the “polyreactivity (PSR sort gate)” value is “high polyreactivity”.

“QVQLVESGGGLVQAGGSLRLSCAASGVIFEYTAMGGYRQAPGKERELVAAITSSGGSTYYADSVKGRFTISRDKAKNTVYLQMNSLKPEDTAVYYCARVRRSAYYQDYYSWGQGTQVTVSS”: the “polyreactivity (PSR sort gate)” value is given as “high polyreactivity”.

In the case of “QVQLVESGGGLVQAGGSLRLSCAASGYGMGWYRQAPGKEREFVAAITSGGSTNYAVSVKGRFTISRDNAKNTVYLHMNSLKPEDSAVYYCAAAYSLYGHRYDYWGQGTQVTVSS”, the “polyreactivity (PSR sort gate)” value is reported as “high polyreactivity”.

In the case of “QVQLVESGGGLVQAGGSLRLSCAASGYIFADYAMGWYRQAPGKEREFVARIRYRDGSTYYADSVKGRFTISRDNAKNTVYLQMNSLKPEDTAVYYCAAQLGRYSYYPMDYWGKGTQVTVSS”, the “polyreactivity (PSR sort gate)” value is “high polyreactivity”.

For the sequence “QVQLVESGGGLVQAGGSLRLSCAASGYIFATYAMGWYRQAPGKERELVAAISWSGGRTYYADSVKGRFTISRDNAKNTVYLQMNSLKPEDTAVYYCNKATSRRVYGYDYWGQGTQVTVSS”, the “polyreactivity (PSR sort gate)” value is given as “high polyreactivity”.
